Reference: publication PMC11228396

Biological target: Stabilized soluble Omicron BA.1 spike (SARS-CoV-2)
Assay: cryo-EM structure

Substance: Stabilized soluble Omicron BA.1 spike (domain or fragment)
- stoichiometry N: 3
